We go through one substance from PMC11134608, “UBR5 forms ligand-dependent complexes on chromatin to regulate nuclear hormone receptor stability” (Molecular cell, 2023).

The assay addresses Full-length human FLAG-UBR5 (human) (UniProt O95071). Description: SEC-MALS; purified UBR5 full length and Δtandem variant. The note with it: remark: other sources report otherwise. In general terms: In gel filtration, larger molecules generally elute earlier.

In general, stoichiometry N refers to the number of molecules, sites or subunits per partner or assembly.

Substance “Full-length human FLAG-UBR5, O95071 1-2799” gave a stoichiometry N of 4.
